Data as given in publication doi:10.1101/2022.09.06.506802 (bioRxiv, 2022).
“And” between values parts separate entries of the source, which are not always exact repeats. Equal values may be shown once.

Assays:
[1] = molecular target: Human Talin 1 R1R2-17b (residues 482-786 + additional 17 residues) (human) (UniProt Q9Y490); test: SEC
[2] = molecular target: Human Talin 1 R1R2-WT (residues 482-786) (human, UniProt Q9Y490 482-786); test: NMR titration

| Molecule | stoichiometry N (vinculin per talin) [1] | binding result [2] |
| --- | --- | --- |
| Vinculin domain 1 (VD1) (from UniProt P18206 1-258) (domain or fragment) | 2 and 3 | – |
| SEDIDQMFSTLLGEMDLLTQSLGVDTC [RIAM peptide (residues 4-30)] | – | binds |
